Measured values from article PMC3980048.

Molecular target: HIV-1 clade C (CZA97.012) gp140 Env trimer (HIV-1 clade C, strain CZA97.012)
Assay: SEC

With “HIV-1 clade C (CZA97.012) gp140 Env trimer (natural protein)” the stoichiometry N was 3.
